Source: patent US20020157120A1 (University of California, published 2002)

Biological target: the molecule itself
Test: Self-association (oligomer dissociation), inferred from FCS translational diffusion at about 1 nM dsRed
Excerpt: Fluorescence was collected through the same objective, a dichroic mirror, and 525+/−50 nm (citrine) or 580+/−50 nm (dsRed) filters and focused by a 150-mm achromat into an optical fiber ([…]). The fluorescence signal was detected by a fiber-coupled avalanche photodiode (APD; SPCM-AQ-141-FC; EG & G, Salem, Mass.). The APD signal was processed by using a correlator card (ALV5000; ALV Laser, Germany), and correlation curves were fitted by using the following function (Schwille et al., supra, 2000):
Within experimental uncertainty, our estimated rotational time (i.e., protein volume) agrees with the tetramer hypothesis of dsRed configuration.

B1: Discosoma red fluorescent protein, dsRed (other)
chain: MRSSKNVIKEFMRFKVRMEGTVNGHEFEIEGEGEGRPYEGHNTVKLKVTKGGPLPFAWDILSPQFQYGSKVYVKHPADIPDYKKLSFPEGFKWERVMNFEDGGVVTVTQDSSLQDGCFIYKVKFIGVNFPSDGPVMQKKTMGWEASTERLYPRDGVLKGEIHKALKLKDGGHYLVEFKSIYMAKKPVQLPGYYYVDSKLDITSHNEDYTIVEQYERTEGRHHLFL
notes: Wild-type dsRed (CLONTECH DNA) cloned into pRSETB, made in JM109(DE3) E. coli and purified on NiNTA-agarose; The entries describe self-association of dsRed subunits; also called red fluorescent protein (dsRed) from coral; not shown: N-terminal tag from vector pRSETB (protein purified by nickel chelate chromatography)
Work on B1 yielded a Kd of no more than 1 nM.
